This is an account of results in a protein production outcome set (Wang et al. 2014).

The data set is described as follows: label from the status in PepcDB records.

On to “MTIFYYSFIILALLACLTVSFRIKKQQYLILYLFVIVLLSLLAGLRYDNADYENYLEIFKNPWEVSPDKGFSAFVLIVRWFTTSPIYMFLPVAIIAVSLNISSYRKYSPYLFVSVLFYFVHSFLLKEYVQIRAGLSCAICLYAIRYIEYKSLWKYIACMVIAMSIHMSSIIFFPMFWVYYFMKNKSNSCLMYFLLLSFIIGTLYPFGQVIKAYVPFLDETSRIATYANWDQFNNEIGILTNFTTLKQIILCVLCYIYWTRLKEVISCFSVLYLAYVLSTCWLMLFNDFVIIGARMATFLSVGEPIFFAGFLCLFNKQSRILVTLFFIIISCIIMDVNLHTKNLGEFKLYPLTSLF”, for which the protein production entry is “failed”.

Regarding “MTIGPLALVISLSQQMCVYLVVAYLLSKTPLFIPLVHVTIRLPHKAACYAIFSLFCIMGTYFGLRIDDSIANTRAIGAVLGGMLGGPSVGLAVGLTGGLHRYSMGGFTALACAISTTAEGLIGGLVHRYLVSRGQTGKLFQPLVVGLVTLFAEVCQMLIIILVARPAVNAVHLVETIALPMLVANSVGAAMFMTILLDRRTMFETQSSVFSAKALKIAARAEGALRSGFNRENSMRVARIIYEETGVGAVAITDRDKILAFIGIGDDHHKPGMAVTSLQTLESIRENRVMYADGNEVAYQCSISPTCPLGAALVIPLVDEGEQVIGTIKLYEPKTRLFSTINRTLGEGVARLLSTQILAGRYEQQRQLLAQSEIKLLHAQVNPHFLFNALNTLSAVIRLDPDHARHLVQSLSTFFRKNLKRTSEQVTLNDEVEQVSAYLEIELARFGDRLSVDFNVPADLGTATLPTFSLQPLVENAIKHGTAQLLGDGRIGVSAERQGGDLVVRVEDNAGLYERRPGGDGLGMNLVDRRIRARYGQGYGLSVECERDVVTRVILRVPFDPSPAGVASPAFEKVGP”, the protein production result is recorded as “failed”.

Take “MTIHWCGTGLSAIPGLRRLIEAGHALTVWNRTVEKARAELGDLTDDIRAFDIDALGAVLAKGDVVVSMLPGDWHVPLAELAIAKGTHFVSSSYIAPEMRALDERAREAGVSLVNEIGLDPGIDHLMAHELVADYRASDAFDAQNHLSFISYCGGIPKHPNPFRYKFSWSPLGVLKALRSPSRSIRDYAPLDVARPWDAISSYTAPLPTPESFEVYPNRDSLPFMGQYHFKEHWPVKEFVRGTLRLNGWADAWGDVFREIETLSGPEGDARLKEMSDQFWAENAYDQGEPDRVVLCVGLKAEKDGREVWHKSYVMDAWGDARGTAMARLVSIPVSLAVEAVLNREIPAGVHAASSDPKLLARWMAEVATLAQHLQIVDHTA”: the protein production entry is “failed”.

Consider “MTIKEFIKKSRLKTWDVIIIAILVLGSFLPLVVFAMQNRGQEAATYQAVLKVDNKVIKVFDLKKDGPHYTYKYEAKDGDYNLIEVDGDRIRVKEANCADLVDVRRGWISKPGETPIACLPHNLFITVEASDGSEDGSLIY”, for which the protein production result is given as “failed”.

As to “MTIKGRAFPEGFLWGGAVAAHQLEGGYKEGGKGLSTADIMTLGTNERPREITDGVVAGKYYPNHQAIDFYHRYPEDIELFAEMGFKCFRTSIAWTRIFPNGDESEPNEAGLQFYDDLFDECLKNGIQPVVTLAHFEMPYHLVKQYGGWRNRKLIQFYLNFAKVCFERYRDKVTYWMTFNEINNQTNFESDGAMLTDSGIIHQPGENRERWMYQAAHYELVASAAAVQLGHQINPDFQIGCMIAMCPIYPLTAAPADVLFAQRAMQTRFYFADVHCNGTYPQWLRNRFESEHFNLDITAEDLKILQAGTVDYIGFSYYMSFTVKDTGKLAYNEEHDLVKNPYVKASDWGWQVDPVGLRYAMNWFTDRYHLPLFIVENGLGAIDKKTADNQIHDDYRIDYLTDHLRQIKLAVLEDGVDLIGYTPWGCIDLVAASTGQMSKRYGFIYVDENDDGSGSLKRYKKDSFTWFQHVIATNGAEIE”, the protein production result is “not failed”.

On to “MTIKRIFCDMDGTLLNSEGQVSKSNATLIREAAIPVTLVSARAPMEMKDAVDALQLGGVQVAFNGGLIYRIGDNNQVLPIHTQIIKKSTVKQLLRGIRFHFPQVSLSYYDLNNWYCDKIDEGIRYEHSLTQQCPTFIHNEDQFLEGHTNTFKIMMITFDEANMLELEKYLQSLELPEITIQRSGKAYLEITHLLAKKSKGIAYILQKEQLAREETAAFGDGHNDLPMLEMVGYPIVMDNAFDDIKAIAYQLTKSNDEDGVGYGIQKFLK”, for which the protein production entry is listed as “failed”.

With “MTIKSDKWIRRMAQEHGMIEPFVERQVRGADDSRVISYGVSSYGYDVRCAAEFKVFTNIHSAVVDPKNFDEKSFVDINSDVCIIPPNSFALARTVEYFRIPRDVLTICLGKSTYARCGIIVNVTPLEPEWEGHVTLEFSNTTNLPAKIYANEGVAQMLFLQSDEACEVSYKDRGGKYQGQR”, the protein production result is on record as “not failed”.

Regarding “MTINPRDYDLDELRKMARQRGNGMGDEDVPDPTDLDMGLDDADEEVLAGSSFRSGLYRELLPFLSGDAQEKPYLEALPETYAAEFVVFEWLEFLLMHSGYKGADEALDYYRSIDWLTEDVQDDLSDYLLGIDESATNDDNELSVDDHMLSLVYIAKLTAMT”, the protein production entry was “failed”.

With “MTIQQWLFSFKGRIGRRDFWIWIGLWFAGMLVLFSLAGKNLLDIQTAAFCLVCLLWPTAAVTVKRLHDRGRSGAWAFLMIVAWMLLAGNWAILPGVWQWAVGRFVPTLILVMMLIDLGAFVGTQGENKYGKDTQDVKYKADNKSSN”, the protein production result is reported as “failed”.

As to “MTIRRLTPTPRAVDWGLFGAVATLLATGVATIFAGIPSSAWIIDLHALSGVVLTLLLPVKLRRVFHRVAPSRLTGTRVLSVGLAAVTLGALGTGVWWIFGGTLDLGPWGLFHLHVALGLLVPPLLLVHLRARFYSPAQATCGGRRDVLRYAGLVTAGALLWRVQGPVNDALDTAGADRRYTGSREEGTDDGNRFPVTSWVADDPDPVDAADWSLSVAGRVAHEASYVAGDLSPDATESAVLDCTSGWYSGHEWQGVRVGDLLDAADPDDAAAWVQFRSITGYRWSLPLSEARDAVLATHVDGERLAHGHGYPLRLVAPGRRGFQWVKWVESVRVSKRRELGEWLAIFVSGL”, the protein production result is “failed”.

Take “MTISADPDRDWKNRISAQALRQIQELDLALDPNSFELWYTFFSGRHKALTEAVNALLAATGRPSAGDISGLYEQFLYPTKAVTRIHAIGALVHSQSNALIDVIEEASDATHGYETRLSSAAPRLALGRMEDGLQTIVDELLTWTMDIQTANAVLVDRLRSAADQVRKLQDQLDQVRLESMTDPLTEVGNRKYFENQLSLHVASDDSGPLALLIVDLDNFKQFNDRHGHVVGDDVLRLAASTIKHNCRRDDVVCRYGGDEFAIILPRTPLREALLLGEAIRAAIAARELHRRSTHESLGRLLISIGAAEFRPGETADDFVERADHWMYAAKQARRDRTRPGPDAAARDPGERRPDILWHETYACGEPTIDAQHRELFDLANVILGPEIEMLEPARLSELVELLLTRVAEHFQYEQAVLEASGYDECGLHRMEHDHLLIRARQVSEAVVSGHQSLGELRAFLVNSVILGHMLKDDRRFFPLFDRQASSATQSGAAPVHRERRRLSL”: the protein production result is “failed”.

Turning to “MTISNFVNYIRSPPVNGFVCCTRGSSIAVCNPTTRQIVKLPDVVTNENYMHVRLGYDPVEDQYKVLLVVMMFDGYRTDTDQEYFVFTLSSQQKEWRKIENTTGETYHMVYGGICIDGAIYYGVSQSIIVKFDVRSEKMEFIQAHEVSHIAPPYYSTLLYLSSDMIRMENHSNEEVRFWILEDAEKLRVSHMACDVWDDSLGKYVRAKEEIHTGKLMGIYPRLQSSKYKPFSVCVYHFNKVGLKKTEIQGSNDDDIRFRCGIGMRTHEILILEVTLRILGSCEEFSWFH”, the protein production result was “not failed”.

With “MTISWFQAALLGLFACLSSMPGLGGTTIGNYTLGRPLVGGLVCGLILGDIKTGIVCGVAMQLVYIALVTPGGTVSADVRAVSYIGIPLAMVAIHSQGLSATSSDAANLAKSMGTLVGTIGTVLFYGTATMNLVWQHIGWQAVEKREFKRLYVVDWGLPWISHIVFSFIPTLIMCKLGADAVTALKNALPMDGIPMKTLFTVGSLLPCVGIAILLKQIVEKAVDFIPFFVGFTLAASLGLNLVSCAVISLIFAVLFYELETIKNMRATASAEASDFDDDDEEDI”, the protein production entry is “failed”.

In the case of “MTKAIPWKINWQTMAFEYIGPQIEALLGWPQGSWKSVEDWATRMHPEDQEWVVNFCVKQSECGVDHEADYRALHRDGHYVWIRDVVHVVRDDSGEVEALIGFMFDISLEHHHHHH”, the protein production entry is reported as “not failed”.

Turning to “MTKAREFLGTGWKFPVAAGADGAMVLSSAEEDIAESIRIILGTARGERVMRPDFGCGIHDRVFSVINTTTLGLIENEVKEALILWEPRIELLSVTASPREAAEGRLLIDIEYRVRSTNTRFNLVYPFYLKESA”, the protein production result is on record as “not failed”.

In the case of “MTKFKGIIYASLGAAFFGISSIIAGLLFNRCSIEPGWLVTTRMLFSGLLLLAWLAITKHNIFSVWSSVKSSLRIVAFGIFGVLFAQSSFLLSVYYGNAAIATILQSLGPSIIIIILAIKSKAIPRRLDIIAIFLSLIGVFLLVTNGNIGELSFSASALVWGLLSALGVCAYTLIPCPLIKEHPPLSLVAWALLIGGVISNFLHPVTNLPKNFDQTDLLLVSLIVVVGTLLAYSLYINSLKYTEPHIVGMLGMLEPVTAILISTLFLGVSFLGFQQLGIFVVFLSLFLINFPAKKK”, the protein production result was “failed”.

For the sequence “MTKFSIIIPTRERVGTLLYTLPACLRVERDDIEFVVCDNYSQDGTADYLKSIQDHRVRIYRTNQRLSMKDNFEHGLARAQGEYICFMGDDDLIIPSLFPLVEKELENVETVCWNRWVYYWPDSYESPNMLIVNNNNFSVILSSSRALDFALRYFLNYQNLPSLYNSFTHRKIVQRVINYNCLNLETEKFYPQDAISPDVFSALQILKFTNSFAHIGLPLTVSGISSSSNGAGVRNNSEESKKFIQELKVEKLSDLLHVSLSALLTQKISYYITNLSDYISFIINYIPETLQEDIFLDLIASGCRTLFDIGDIDADTATQFMAGYDISPWVVNGRLNLMDQGFYTLFRVPMFNRVVINGDEHSLSNSLNASVFLDDYFSSLIY”, the protein production entry is on record as “failed”.

As for “MTKGSRKSRRRQQAPTKARPEQGRSAPAQRPAPTFRLRTAALLAIGSGALFFLLASGLSWFKTSEISSPPTREAELSFVGSQACSGCHQAETRLWQSSQHRHAMDHATDTSVRGDFNDAAFEYAGTRSRFFRKDRKFLIETDGPDGKLATFEVKYAFGVDPLQQYLIEFPDGRIQALSIAWDTRPKDQGGQRWFHLYPDAAVTSSDPLHWTRLNQNWNFMCAECHSTNVHKNYDAARDRFATSFSEISVGCEACHGAGSRHVSWAQQKPAARGPDNGLLVRFDERSGITWSADAETMTPKRSAPPATLRKEVEVCGRCHARRGQFSEDWRPGKSLSETHRVSLLDRQSFHADGQMRDDEETYNYASFKQSKMFAKGVTCSDCHDPHSAALKAPGDGVCAQCHAPAKYEAAAHRQHANVSPPPGCASCHMPERRYMVVDRRHDHGFRIPRPDLSVQLGTPNACNDCHRDKPAAWAARQVETWFGPQRLGFQAYARAFHAAWSEAADAQALLSAVVANDAPGIVRAGALAELPAPDADLIRRALSDPDPLVRLGALDALEGIPADQLWTLASAQLTDPVRGVRIRAAELLASVPPSRQPAADRNKFTQAAAEFVAAQKLNADRPDARAALGNFLARQAGAAEAEAEYRAALRLDPSFPPAAINLSDLYRQLGRDSDGERILRETLTKSGQNASLHHALGLVLVREKRADEALGELRQAAELDPGQPRYAYVYAVGLHSSGRRDDALAVLRTSLQVHPNDRESVSAALALSREKGDSASALGYAEQLSRLMPGNREIEDLIKQLKQ”, the protein production result is listed as “failed”.

Turning to “MTKIIPVASGKGGVGKTSFVANVGYKLSSLGKTVILVDLDLGGSNLHTCLGVKNKGVGIGSFINKKSKSFSDLVCKTSYDKLYLIPGDALYTGTANLPFSIKKKIIESIQKDLIADFIFLDLGSGTSYNTIDFYLASYSGVIVTIPETPSILNAYSFLKNALYRLLYLGFPQKSPERDYIGNFFKDKIEGTNLGFKDLVVGIELISLSSSLKVKRMMNNFYPRVVLNRIETSEEIAMCENLINVVKNNINIPIEFIGFVPFAKSFREAINNRVPFIDFEKNSKLNKYFEFIAGNLIKSP”, the protein production result is recorded as “failed”.
